This note sets out measurements from a protein production outcome set (Wang et al. 2014).

This data set can be described thus: label from the status in PepcDB records.
Regarding “MTIPNQIEVRGGRVHNLKNIDVDIPLNKFVAISGLSGSGKSSLAMGILYEEGSRRYLDALSTYMRRRIKQGSQVDVTSVKHIPSALALRQRPSVPNERATVGTMSETFNILRLIFSRLGSPVCPNGHRLKPSLKIAESMSLSGEKMGQLTCPVCGENFYAPSAEQFAFNSEGACIECGGTGKVRQLDEDKLIADENLSIKEGAVASWSLPGRNFMPNVAEYAGVRIDIPYKDLTAKEKDFVLNGPEKKYKMDFLSGTGRVFHDFNVLYENAHQAVYRSAQTSKSERAQKRIAEFFTYSICPVCHGSRLKPELLKQWVGNSNINQVSQKQLGELPTWADQIQAELPANMHKMAHALFAEFLDNLQPLLDLGLDYLTMARNGNTLSTGELQRIQLARTLRTETTGVLYVLDEPSIGLHPANVAGLIKVLRKLVNQGNSLVVVDHNVDIIAAADEVIEIGPGSGEKGGQILDHGPISTIKNDQQSLIRPYLDGSAQLLARKIANQINNDGISFEVKNYFNLKDIKANIPLNQLTAVTGFSGAGKTSLILDSLVPAIKAESKNEKLPKQIINFSAPVSNVVGVDASPIGKSTRSTVATYTSIMNNLRRLFASQPLAKEKHFTPTYFSYNNKQGACPTCGGTGIVTLDIQFLPDMQQVCPTCHGDRYNQKVQQVKWQGMSIVDILNLDIEGALPLFKRVPKIERELKLLKEVGLDYLHLGESTPTLSGGEAQRLKLVTHLSHKQSDTLFVFDEPTIGLHPLDVKTLVKVMQKLLDQGATLITITHDLNLIANCDYIIDLGPQGGNNGGQIVASGRVMDLIKDPHSLTTQYLAVYCENLICLKIIIDLLA”, the protein production entry is “failed”. Next, “MTIPYKEQRLPIEKVFRDPVHNYIHVQHQVILDLINSAEVQRLRRIKQLGTSSFTFHGAEHSRFSHSLGVYEITRRICEIFQRNYSVERLGENGWNDDERLITLCAALLHDVGHGPYSHTFEHIFDTNHEAITVQIITSPETEVYQILNRVSADFPEKVASVITKQYPNPQVVQMISSQIDADRMDYLLRDAYFTGTEYGTFDLTRILRVIRPYKGGIAFAMNGMHAVEDYIVSRYQMYVQVYFHPVSRGMEVILDHLLHRAKELFENPEFDYDLQASLLVPFFKGDFTLQEYLKLDDGVLSTYFTQWMDVPDSILGDLAKRFLMRKPLKSATFTNEKESAATIAYLRELIEKVGFNPKYYTAINSSYDLPYDFYRPNKDRHRTQIELMQKDGSLVELATVSPLVAALAGQSQGDERFYFPKEMLDQGNKKHYDLFDETYREFSSYIHNGALVLKK”: “not failed”; “MTIQPDFNDEPGAFAMTHTHTALDKTLKERIFHALAFEGLAVLLTAPVLSLVMNKPLAHMGALTLMFSTVAMLWNMLFNSLFDRAQRRMGFQRTLQVRVLHAMLFELGLIVVLVPLAAWWLSIGLVEAFLLDMGLILFFLPYTMAFNWSYDVLRARLVESRQAKAAGCDAG”: “failed”. Consider “MTIQSEQALEQGLIKTLVSMNYQKIEIADENALIVNFRNQLNIHNNIELTDDEFNRIMIHLDSGSIFVKAEKLRNRFPLTRDDESVKWIEFLNTQEWCKNEFQVSNQITDEGRRKCRYDVTILVNGLPLVQVELKKRGVELKQAYSQVQRYHKTAFKGLFNYIQIFVISNGVNTRYFANNPNQGYKFTFPWADFKNNHIDRLDLFAAMFFEQCTLGKMLAKYVVLHQSDKCLMILRPYQFYAVEALLDKVANSVKNGYIWHTTGSGKTLTSFKAAQLIAEMSDIDKVLFVVDRHDLDTQTKKEYDAFAPGAVDSTDNTKELVKALQGKKKLMITTIQKLNNAVQKDRYSKGLQGVKDKNIVMIFDECHRSQFGEMHSNITGFFSKIRYFGFTGTPIFADNANNGCTTKDIFGERLHEYLIKDAIADENVLGFLVEYHGKWKRKSENDKQVKSIDTAEVLLKDERIASITDFILSNYNSSTYERDFNAMLAVGGVKMLIKYYDMFKSRNHDLKIATIFTYTQNEESEDEFTGLGQGFVSVQNTRDILESYIKDYNETFGTEFDTDHFGLYYDDINKRMKNRQIDLLIVSDMFLTGFDAKKLNTLYVDKNLNYHGLLQAFSRTNRVLNEKKKFGKITCFRDLKQQTDDAIKLYSNNKSSEVVLMKPYEKLVERFNEMAAEFLSYFPTVKSVGNLESELDKRRFVILFRAMLRLRNEVKGYNEFDAEDLTIEEQRFADYQSKYLDMSNEFAITSEKEDAESILQDIDFELELVHRDIINVMYILALLQDLKPESSSYPKDRKAVLDTMDSNPELRSKIALIDNFIKLHIDGRQSNDLPADMESDLDKYIATQKAIAIEQVATEEGIDSTLLHEYISEYEYLGKPKNEIIKRAIDPLKLSFMDAQSKKKSLIDKMKDIIKLFSWN”, for which the protein production entry was “failed”. Take “MTIRAGSLDRRTLLRGAIATAAMGSFAVACSSPSSEDKESDSGPKGEKSANNPFGAAANSTVEAAIFDGGYGTDYVDYANQVLGSQVKGLKVQVKPVVDIAPQLQPRFVGGNPPDLIDNSGEDQIGFLGILDQLEELDDLFEASTYEGKKIADIVYPGVKDPGTFKDKFVALNYVMTVYGVWYSKTLFEENGWTPPKTWDEALDLGQEAKKKGKYLFVHGKEAATYYRTLLIDSAIKEGGDEVRLALENLEKGCWSHPAVQGVIKVMETMVKQKMFVPGGSGTQFQKAQAIWSNDQKALLYPSGGWIENEMKKATKADFQMTGIPSMTLTDKPALPYEALRAAAGEPFIVPKQGKNPAGGKEVLRAMLSEKAAANFSKTKLAPTIVKGTVPADGYGSTALVSQTKMLEAAGTNIFNYMFVETYGLNTDQLVPWNSFLAGDLDGKGLTSALQKISDKVREDDSVDKVKVS”: the protein production entry is “failed”. Then “MTIRMIPHPIFSSPTKRRREKPDPPARAGAAQPSGPARMTPQQQTEWQQRLIALLESQPPDDDGAHDLSHLHRVWAVARTLLAHYPDADSIVVMAGSYLHDLVNLPKNHPQRQLASHWSAERARQLLADSGLTEAQLDNLAHAIEAHSYSAAIPPRTLEARIVQDADRMDALGPVGLARMFYVSGRMGRALAHPLDPLAEHRGRDDQAWAIDHIDVKLAKLPGMMQTEAGRAMAERKLEWLFHFRDEFCRDWMARLEHHHHHH”, with “not failed”; and “MTISEVSKKYELSADTLRYYERIGLIPPVNRNKSGIRSFTEEDCEWVNFIKCMRGAGLSIETLIEYVAMFQQGSSTIKARKELLIEQRNQLAKRIEEMQKTLERLNFKIDRYEEGIIEKEKVLKSSRNKKMEAVS”, with “failed”. As for “MTISEVSKKYELSADTLRYYERIGLIPPVNRNKSGIRSFTEEDCEWVNFIKCMRGAGLSIETLIEYVAMFQQGSSTIKARKELLIEQRNQLAKRIEEMQKTLERLNFKIDRYEEGIIEKEKVLKSSRNKKMEAVSYE”, the protein production result was “not failed”. As to “MTITPQQLIALLPLLIVGLTVVVVMLSIAWRRNHFLNATLSVLGLNAALVSLWFVGQNGAMDVTPLIRVDGYAMLYTGLVLLASLATCTFAYPWLEGYKDNKEEFYLLVLIAALGGILLAGANHLAALFLGIELISLPLFGLVGYAFRQKRSLEASIKYTILSAAASSFLLFGMALVYANSGNLSFLALGKSLADNMLHEPLLLAGLGLMIVGLGFKLSLVPFHLWTPDVYQGAPAPVSTFLATASKIAIFGVVMRLFLYMPVGNSEAVRVVLGLIAFASIIFGNLMALSQTNIKRLLGYSSISHLGYLLVALIALQSGEMSMEAVGVYLAGYLFSSLGAFGVVSLMSSPYRGPDADSLFSYRGLFWHRPILSAVMTVMMLSLAGIPMTLGFIGKFYVLAVGVHAHLWWLVAAVVVGSAIGLYYYLRVAVSLYLSAPEQLNRDAPSNWQYSAGGIVVLISALLVLVLGIWPQPLISIVQLATPLM”, the protein production result is given as “failed”. Next, “MTITSFGPANRIARTAETHPLTWRLRDDGEPVWLDEYQTKDGYAAARKALTQQAPDDIVQSVKDSGLKGRGGAGFPTGVKWGLMPKDESMNIRYLLCNADEMEPNTWKDRMLMEQLPHLLIEGMLISARALKAYRGYIFLRGEYVTAAKHLNRAVAEAKAAGLLGKNILGTGFDFELFVHTGAGRYICGEETALINSLEGRRANPRSKPPFPAAVGVWGKPTCVNNVETLCNVPAIVNNGNDWYKSLAREGSEDHGTKLMGFSGKVKNPGLWELPFGVQARELFEDYAGGMRDGFTLKCWQPGGAGTGFLLPEHLDAQMYAGGIAKVGTRMGTGLAMAVDDSVNMVSLLRNMEEFFAQESCGFCTPCRDGLPWSVKILRAIENGHGQPGDIETLLGLVNFLGPGKTFCAHAPGAVEPLGSAIKYFRSEFEAGIAPASAAMLVPGKSPTVVGALEHHHHHH”: “failed”; “MTIYSPDTINFNGVSGDRYWFDEPFPYTGVADIDERLSGFPVAVFLPHHRPRQETPLVIGLQGMCAPYGWNAFIVPILIEMGIAVALFDPPLSGERSLVRTSTTLVQNEIKPLIDRGIPFDTALFLSIFRTTARDIGKIREFCGDRYGLTDSRLALFGVSMGVLLSAYAFTANSLGDRLLGTIGHADLPSFAKSWGRPFLPDLAASPLGGLAESLLQRLQPDLAPLFNLLRLTKNLKYQDEYAWDCNPMNYIQQVESHRRVRFLIGANDSIVKIKDARACAQKFPDGDCYIVPGMGHGTRQSGVSFVDHVRYFLATQLGDWRG”: “failed”; “MTKACEANKSFLQSAVDKKEYSRTLLVDDGSDEGARSAGAFRPTPHRKGHGGRSPRRDQSPRRDSPQTASRTRLSSELIADLLQKKRERPTRSSSFPKRDKTIARTDRSPRSSPLPRSMGPPPPVIASPSSRSWGERPVGVQILTRRV”: “failed”. As for “MTKAIQSSVQVGELATGQALTVPIYSFMGSENSAPSVYIQANVHGAEVQGNAVIYQLMTLLEGYQVLGDITLAPLANPLGINQKSGEFTLGRFDPITGVNWNREYFDHNVDIQNWYAEHQHLTNSELFCAYRSMLVETCQARLTHSFGISTGHRLAVNLQAMAHQADIVLDLHTGPKSCKHLYCPEYDIDAARFFSIPYTLIIPNSFGGAMDEATFCPWWQLTEYATSQGREFSVPVSAFTLELASQERIDLADALEDAKGILAYLSHRGVIAEKVNPASMERFGCYLKDYKKFHAPKAGLIEYCASVGEPLTAGKPLVNILRIDLYGSEQAYQAISLPMDCVPILHFASASVLQGTELYKVMTNVFPLQPS”, the protein production entry is “not failed”. As for “MTKDRQIKKTKTAIYSAFIALLQKKEYSKITVRDMITLANVGRSTFYAHYESKEMLLKELCEELFHHLFRQKRNVTFEDYLVHILKHFEQNKDSIATLLLSNDPYFLLRFKNELEHDVYPNLRCKYIDKTTIPEVFLKQFVLSSFIETLKWWLHQRQRMSANELLKYYLELIK”, the protein production result was “failed”. Turning to “MTKEPRNLSEWIKELKKASREAVILVEGKNDKKALSKFSIKNVIDLSGKRYADVVDMLEGKWEKVILLFDLDTHGERINQKMKELLSSQGFLVDENFRNFLKKWNIIHIEEINGGKNS”, the protein production result is listed as “not failed”.

For “MTKGISALSNIATLRSRELGPETFIPYVRHVDETTIALESRALMTMIALDGVSFETSDVRDLNGLHRSLNTLYRNIADERLALWTHVVRRRDNAYPEGRFANPFSDGLNARYRERMVNENLFRNDLYLTLVWHPGRDPAEKAAKLLSRLSKARRSDTELDGQALKHLRDHVADVAAGLQRFGPRQLTLHEHDGILFSEPSEVLHQIVGGRREPIPLTEGRISSAIYSDRVIFGRETIEIRHEADSRYAGMFGFKEYPATTRSGMLDAILTAPFELILTQSFAFTSKADARTIMGRKQNQMVSAGDKAASQIEELGEAMDDLESNRFVLGEHHLTLAVFAPSVKELTDHMAKARAYLTSGGAVVAREDLGLEAAWWAQLPGNFRYRARSGAITSRNFAALAPYHSYPAGKKDGNEWGPAVAMLKTASGSPFYFNFHHGDLGNSFVCGPSGTGKTVLLNFMLSQLEKHGPHMVFFDKDRGADLFVRAAGGTYLPLKNGVATGCAPLKALEFTAENKVFLTGWIAKLVRSGPGELSITELRDIALAVDGVADLPVERRSIGALRTFLNNTDPEGIAARLRRWEKGGPLGWVFDNEADDIGIGARFIGYDMTDFLDNEEIRTPLMAYLFYRIEQLIDGRRIIIVIDEFWKALQDEGFRDLAQNKLKTIRKQNGLMLFATQSPRDAIVSPIAHTIIEQCPTQIFLPNPRGDRADYVDGFKLTEREFELVSRELSVESRRFIVKQGHNSVVAELNLNGFDDELAILSGRTANVELADAIRLEIGEGREDWLAVFHQRRKTA”, the protein production entry was “failed”.
